The test system of this data set is Escherichia coli TOP10. As to the kind of experiment: shrunken log2 fold change of peptide-encoding DNA abundance (4.5 h post-induction vs induction); higher = less antimicrobial activity (less host growth inhibition). Particulars: time post-induction: 4.5 h; library: site-saturation at positions 5, 18, 19, 20.

The source of these data is the supplement of paper PMC9112550, “Optimization of the antimicrobial peptide Bac7 by deep mutational scanning” (BMC Biology, 2022).
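Note: peptides expressed intracellularly from a pBAD plasmid library in pooled LB shake-flask culture, induced with 0.3% L-arabinose, DNA abundance read by NGS, three biological replicates, DESeq2 with apeglm shrinkage.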

Regarding RRIRTRPPRLPRPRPRPSKMPRP, the “shrunken log2 fold change” value is -0.793.
Take RRIRWRPPRLPRPRPRPQRLPRP: the “shrunken log2 fold change” value worked out at 0.159.
Take RRIRNRPPRLPRPRPRPDTMPRP: the “shrunken log2 fold change” value is -1.25.
Take RRIRERPPRLPRPRPRPVDVPRP: the “shrunken log2 fold change” value amounted to 0.064.
As to RRIRHRPPRLPRPRPRPDGSPRP, the “shrunken log2 fold change” value was -0.0231.
As to RRIRSRPPRLPRPRPRPIETPRP, the “shrunken log2 fold change” value was -0.29.
Turning to RRIRIRPPRLPRPRPRPGFMPRP, the “shrunken log2 fold change” value is -0.487.
In the case of RRIRLRPPRLPRPRPRPYAIPRP, the “shrunken log2 fold change” value is -0.233.
As to RRIRRRPPRLPRPRPRPEGIPRP, the “shrunken log2 fold change” value is 0.252.
Regarding RRIRERPPRLPRPRPRPHQKPRP, the “shrunken log2 fold change” value was -0.0694.
The value for RRIRVRPPRLPRPRPRPNFIPRP was -0.168; that for RRIRYRPPRLPRPRPRPRIPPRP was -0.353.
The value for RRIRIRPPRLPRPRPRPAMVPRP was -0.547; that for RRIRLRPPRLPRPRPRPVNHPRP was 0.197; that for RRIRGRPPRLPRPRPRPQEEPRP was 0.0943.
The value for RRIRPRPPRLPRPRPRPYQHPRP was -0.592; that for RRIRPRPPRLPRPRPRPIDSPRP was -0.018; that for RRIRRRPPRLPRPRPRPACWPRP was 0.626.
With RRIRDRPPRLPRPRPRPFAPPRP, the “shrunken log2 fold change” value amounted to 0.318.
Consider RRIRFRPPRLPRPRPRPCMDPRP, for which the “shrunken log2 fold change” value was -0.336.
RRIRPRPPRLPRPRPRPIGHPRP: the “shrunken log2 fold change” value was -0.0228.
Turning to RRIRARPPRLPRPRPRPCWWPRP, the “shrunken log2 fold change” value stood at 0.157.
Consider RRIRRRPPRLPRPRPRPLGNPRP, for which the “shrunken log2 fold change” value was -0.0268.
On to RRIRTRPPRLPRPRPRPFNWPRP, for which the “shrunken log2 fold change” value is -0.22.
The value for RRIRWRPPRLPRPRPRPIMWPRP was 0.181; that for RRIRERPPRLPRPRPRPLTTPRP was -0.395; that for RRIRQRPPRLPRPRPRPDQGPRP was -0.0223.
The value for RRIRPRPPRLPRPRPRPGNLPRP was -0.376.
For RRIRGRPPRLPRPRPRPYPWPRP, the “shrunken log2 fold change” value amounted to 0.155.
Turning to RRIRYRPPRLPRPRPRPQNDPRP, the “shrunken log2 fold change” value is -1.63.
The value for RRIRGRPPRLPRPRPRPHEYPRP was -0.325.
Turning to RRIRKRPPRLPRPRPRPFSMPRP, the “shrunken log2 fold change” value is -0.489.
Take RRIRIRPPRLPRPRPRPDMTPRP: the “shrunken log2 fold change” value was -0.01.
The value for RRIRLRPPRLPRPRPRPYMCPRP was -0.252.
On to RRIRKRPPRLPRPRPRPQKNPRP, for which the “shrunken log2 fold change” value turned out to be 0.319.
The value for RRIRVRPPRLPRPRPRPDYVPRP was -0.406; that for RRIRSRPPRLPRPRPRPTQKPRP was 0.375.
On to RRIRPRPPRLPRPRPRPWPFPRP, for which the “shrunken log2 fold change” value came out at 0.108.
On to RRIRVRPPRLPRPRPRPNTNPRP, for which the “shrunken log2 fold change” value was -0.421.
Take RRIRARPPRLPRPRPRPMHHPRP: the “shrunken log2 fold change” value turned out to be 0.112.
On to RRIRMRPPRLPRPRPRPELDPRP, for which the “shrunken log2 fold change” value is 2.77.
The result for RRIRNRPPRLPRPRPRPQVWPRP reads 0.0895.
On to RRIRFRPPRLPRPRPRPKFLPRP, for which the “shrunken log2 fold change” value is -0.283.
Take RRIRIRPPRLPRPRPRPTARPRP: the “shrunken log2 fold change” value amounted to 0.0575.
Regarding RRIRVRPPRLPRPRPRPRPSPRP, the “shrunken log2 fold change” value came out at 0.382.
The result for RRIRWRPPRLPRPRPRPYQNPRP reads -0.847; that for RRIRARPPRLPRPRPRPDITPRP, 0.491; that for RRIRMRPPRLPRPRPRPIQDPRP, -0.114.
Regarding RRIRDRPPRLPRPRPRPWKMPRP, the “shrunken log2 fold change” value was determined as 0.0664.
As for RRIRLRPPRLPRPRPRPNATPRP, the “shrunken log2 fold change” value came to 0.0161.
RRIRERPPRLPRPRPRPVCFPRP: the “shrunken log2 fold change” value is -0.173.
On to RRIRRRPPRLPRPRPRPEDKPRP, for which the “shrunken log2 fold change” value came out at 0.103.
Regarding RRIRVRPPRLPRPRPRPWWTPRP, the “shrunken log2 fold change” value is -0.0418.
RRIRGRPPRLPRPRPRPLIVPRP: the “shrunken log2 fold change” value was 0.274.
As for RRIRFRPPRLPRPRPRPWMNPRP, the “shrunken log2 fold change” value was -0.708.
On to RRIRGRPPRLPRPRPRPVPCPRP, for which the “shrunken log2 fold change” value was determined as 0.463.
RRIRIRPPRLPRPRPRPFIQPRP: the “shrunken log2 fold change” value was -0.551.
Turning to RRIRDRPPRLPRPRPRPYEYPRP, the “shrunken log2 fold change” value was -0.17.
In the case of RRIRFRPPRLPRPRPRPFFNPRP, the “shrunken log2 fold change” value is -0.313.
In the case of RRIRSRPPRLPRPRPRPSFIPRP, the “shrunken log2 fold change” value was -0.661.
The value for RRIRHRPPRLPRPRPRPWSWPRP was -0.304; that for RRIRSRPPRLPRPRPRPHYVPRP was -0.488; that for RRIRMRPPRLPRPRPRPDPCPRP was 0.0496.
Consider RRIRHRPPRLPRPRPRPREVPRP, for which the “shrunken log2 fold change” value was found to be 0.151.
The value for RRIRHRPPRLPRPRPRPWHAPRP was -0.0793; that for RRIRIRPPRLPRPRPRPSYGPRP was -0.53; that for RRIRVRPPRLPRPRPRPECSPRP was -0.091.
Consider RRIRVRPPRLPRPRPRPWRLPRP, for which the “shrunken log2 fold change” value came out at 0.426.
Consider RRIRHRPPRLPRPRPRPVLTPRP, for which the “shrunken log2 fold change” value was -0.107.
On to RRIRCRPPRLPRPRPRPCWKPRP, for which the “shrunken log2 fold change” value was -0.174.
For the sequence RRIRNRPPRLPRPRPRPCIKPRP, the “shrunken log2 fold change” value is -0.207.
The value for RRIRDRPPRLPRPRPRPHKMPRP was -0.293.
RRIRQRPPRLPRPRPRPSFHPRP: the “shrunken log2 fold change” value is -0.351.
Consider RRIRRRPPRLPRPRPRPPSQPRP, for which the “shrunken log2 fold change” value worked out at 0.46.
The result for RRIRIRPPRLPRPRPRPWKLPRP reads -0.0644; that for RRIRNRPPRLPRPRPRPFIYPRP, -0.856.
As to RRIRDRPPRLPRPRPRPEFLPRP, the “shrunken log2 fold change” value was 0.0745.
In the case of RRIRFRPPRLPRPRPRPYHNPRP, the “shrunken log2 fold change” value is -0.882.
Consider RRIRTRPPRLPRPRPRPNCHPRP, for which the “shrunken log2 fold change” value is -0.341.
As to RRIRARPPRLPRPRPRPSDQPRP, the “shrunken log2 fold change” value was -0.0615.
The result for RRIRNRPPRLPRPRPRPIHPPRP reads 0.135.
The value for RRIRARPPRLPRPRPRPFGQPRP was -0.0155; that for RRIRERPPRLPRPRPRPLMNPRP was -0.336.
For RRIRARPPRLPRPRPRPFFMPRP, the “shrunken log2 fold change” value is -0.0309.
On to RRIRIRPPRLPRPRPRPMELPRP, for which the “shrunken log2 fold change” value is -0.000689.
The result for RRIRTRPPRLPRPRPRPNTSPRP reads -0.43.
As to RRIRIRPPRLPRPRPRPRSHPRP, the “shrunken log2 fold change” value is -0.287.
The result for RRIRMRPPRLPRPRPRPIYKPRP reads -0.0684; that for RRIRKRPPRLPRPRPRPLGQPRP, 0.991.
Regarding RRIRNRPPRLPRPRPRPSMNPRP, the “shrunken log2 fold change” value is -0.578.
For the sequence RRIRARPPRLPRPRPRPMNWPRP, the “shrunken log2 fold change” value is 0.351.
For the sequence RRIRTRPPRLPRPRPRPDFKPRP, the “shrunken log2 fold change” value was -0.172.
In the case of RRIRLRPPRLPRPRPRPLVVPRP, the “shrunken log2 fold change” value is -0.113.
On to RRIRERPPRLPRPRPRPLGLPRP, for which the “shrunken log2 fold change” value was -0.00554.
For the sequence RRIRLRPPRLPRPRPRPFSTPRP, the “shrunken log2 fold change” value was 0.0382.
As for RRIRLRPPRLPRPRPRPHMWPRP, the “shrunken log2 fold change” value was -0.325.
As for RRIRMRPPRLPRPRPRPIGPPRP, the “shrunken log2 fold change” value was determined as 0.069.
Take RRIRVRPPRLPRPRPRPYPHPRP: the “shrunken log2 fold change” value is -0.342.
Take RRIRRRPPRLPRPRPRPLECPRP: the “shrunken log2 fold change” value came out at 0.0527.
As to RRIRVRPPRLPRPRPRPCRMPRP, the “shrunken log2 fold change” value was -0.0641.
The value for RRIRRRPPRLPRPRPRPYSRPRP was -0.391; that for RRIRVRPPRLPRPRPRPFAHPRP was -0.176; that for RRIRLRPPRLPRPRPRPERFPRP was 0.219.
As to RRIRGRPPRLPRPRPRPCLEPRP, the “shrunken log2 fold change” value worked out at 0.546.
The result for RRIRMRPPRLPRPRPRPDNRPRP reads 0.00102; that for RRIRSRPPRLPRPRPRPMTVPRP, -0.0124.
RRIRDRPPRLPRPRPRPLCFPRP: the “shrunken log2 fold change” value is 0.0676.
Consider RRIRGRPPRLPRPRPRPGSSPRP, for which the “shrunken log2 fold change” value was 0.028.
For RRIRQRPPRLPRPRPRPVNAPRP, the “shrunken log2 fold change” value was 0.00432.
As for RRIRCRPPRLPRPRPRPPTLPRP, the “shrunken log2 fold change” value is -0.0423.
Regarding RRIRMRPPRLPRPRPRPSVIPRP, the “shrunken log2 fold change” value is -0.244.
Consider RRIRPRPPRLPRPRPRPKHPPRP, for which the “shrunken log2 fold change” value was found to be 0.995.
As to RRIRHRPPRLPRPRPRPRSCPRP, the “shrunken log2 fold change” value was -0.0982.
For the sequence RRIRLRPPRLPRPRPRPRKHPRP, the “shrunken log2 fold change” value was -0.0984.
As to RRIRHRPPRLPRPRPRPTSQPRP, the “shrunken log2 fold change” value was -0.00232.
The value for RRIRERPPRLPRPRPRPPMQPRP was 0.225.
The result for RRIRHRPPRLPRPRPRPGNGPRP reads 0.278; that for RRIRKRPPRLPRPRPRPSTDPRP, -0.135.
For the sequence RRIRFRPPRLPRPRPRPEARPRP, the “shrunken log2 fold change” value was -0.137.
With RRIRGRPPRLPRPRPRPKQFPRP, the “shrunken log2 fold change” value worked out at 0.566.
For the sequence RRIRSRPPRLPRPRPRPTRQPRP, the “shrunken log2 fold change” value amounted to 0.215.
The value for RRIRKRPPRLPRPRPRPQSTPRP was -0.0185.
On to RRIRTRPPRLPRPRPRPKKRPRP, for which the “shrunken log2 fold change” value was 0.0216.
In the case of RRIRFRPPRLPRPRPRPWIWPRP, the “shrunken log2 fold change” value stood at 0.0425.
On to RRIRMRPPRLPRPRPRPIISPRP, for which the “shrunken log2 fold change” value is -0.0891.
